Measured values reported in patent publication US20220174981A1, “PROLINE TOLERANT TRIPEPTIDYL PEPTIDASES AND USES THEREOF” (DuPont Nutrition Biosciences APS, priority 2014, published 2022).
Peptide text beside a SMILES is read from it.

T1: T. reesei proline tolerant tripeptidyl peptidase TRI083 (SEQ ID No. 1, SEQ ID No. 2 or SEQ ID No. 29) (Trichoderma reesei, UniProt G0RXE9)
T1 sequence (G0RXE9 198-612): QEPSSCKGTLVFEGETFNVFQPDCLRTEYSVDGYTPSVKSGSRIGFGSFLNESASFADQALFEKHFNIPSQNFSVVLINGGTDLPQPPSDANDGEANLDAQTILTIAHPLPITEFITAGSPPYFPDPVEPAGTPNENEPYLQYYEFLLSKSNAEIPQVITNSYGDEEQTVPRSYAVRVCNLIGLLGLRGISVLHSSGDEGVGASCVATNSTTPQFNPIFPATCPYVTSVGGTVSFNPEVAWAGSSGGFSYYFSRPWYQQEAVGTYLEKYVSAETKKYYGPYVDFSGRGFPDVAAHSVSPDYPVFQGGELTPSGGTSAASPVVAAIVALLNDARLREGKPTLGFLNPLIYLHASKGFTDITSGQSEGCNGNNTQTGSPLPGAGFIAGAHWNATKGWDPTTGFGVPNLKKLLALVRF

B1: TRI083: proline tolerant tripeptidyl peptidase (SEQ ID No. 1, SEQ ID No. 2 or SEQ ID No. 29), expressed in Trichoderma reesei (protein)
chain: T1 sequence (G0RXE9 198-612)

Tests used:
Format in all cases: biochemical
[1] = biological target: T1, T. reesei proline tolerant tripeptidyl peptidase TRI083 (SEQ ID No. 1, SEQ ID No. 2 or SEQ ID No. 29); assay: Product inhibition of proline tolerant tripeptidyl peptidase TRI083 with H-Ala-Ala-Ala-pNA as substrate; details: competitive inhibitor fit; substrate Ala-Ala-Ala-pNA (0-2000 nM); McIlvaine buffer pH 4.0, 50° C.; tripeptide at 3.6 mM, dipeptide at 18 mM
Method: For proline tolerant tripeptidyl peptidase the chromogenic peptide H-Ala-Ala-Ala-pNA was used. The assay was conducted as follows, 27.5 μL of appropriately diluted enzyme was added to 200 μl McIlvaine buffer (20 mM, pH 4.0). After incubation at 50° C. for 5 min, 12.5 μL of the chromogenic peptide solution (5 mg/mL dissolved in dimethyl sulfoxide (DMSO); Sigma-Aldrich, Denmark) were added to the reaction mixture. The reaction was terminated by adding 50 μL of 0.5 M trichloroacetic acid (TCA; Sigma-Aldrich, Denmark). After centrifugation (15,000×g, 5 min), 240 μL of the solution were transferred to a microtiter plate (MTP; Kisker-biotech, Germany) and the absorption was measured in an MTP reader (Molecular Devices, Denmark) at 405 nm. One katal of proteolytic activity was defined as the amount of enzyme required to release 1 mol of p-nitroaniline per second. […]
The inhibition experiments were set up as described in Example 14. […] The degree of pre-hydrolysis of H-Ala-Ala-Ala-OH was determined by gas chromatography (Husek, 1991; FEBS-Letters 280, 354-356). About 0.18 mg/mL alanine was measured, which corresponds to about 54% hydrolyses of the initially applied H-Ala-Ala-Ala-OH.
Subsequently, TRI083 was analyzed for product inhibition without inhibitor, with 1 mg/mL H-Ala-Ala-Ala-OH as well with the PepN pre-hydrolyzed H-Ala-Ala-Ala-OH (1 mg/mL).

[2] = test system: whey protein (WPI, Lacprodan-9224); assay: Hydrolysis of 20% whey protein (WPI) with Alphalase FP2 and TRI083, OPA degree of hydrolysis; details: FP2 0.0%
Method: For whey protein hydrolysis, Lacprodan-9224 (Arla Food Ingredients, Denmark) was employed. A 20% (w/w) WPI suspension was prepared in H2Od and adjusted to pH 4.0 with acetic acid (Sigma-Aldrich, Denmark). To prevent microbial growth, 0.0285% (w/w) NaN3 was added. A volume of 200 μl of the WPI suspension was transferred into each of the 96 wells of a microtiter plate (MTP; VWR, Denmark). Subsequently, 5 μl of each consecutively diluted peptidase, Alphalase® FP2 and proline tolerant tripeptidyl peptidase (3PP=TRI083; 0-8750 nkat H-Ala-Ala-Ala-pNA/mL activity in stock solution added), were added to each well, resulting in dosages as shown in Table 1. The MTP was sealed and placed in an EMS incubator/shaker (Thermo Scientific, Denmark) at 40° C. After 24 h of incubation and shaking at 400 rpm, the hydrolyses were stopped by addition of 20 μl of 2 M trichloroacetic acid (TCA; Sigma-Aldrich, Denmark). As a reference, a plain 20% WPI (w/w) suspension was used which was treated in the same manner as the WPI hydrolyses. Unhydrolysed, precipitated WPI was removed by filtration (0.22 μm). On the filtered WPI hydrolysate o-phthaldehyde (OPA) derivatization was conducted according to Nielsen et al. (2001) with minor modifications. A sample volume of 25 μl was transferred to a well and 175 μl of OPA-reagent, dissolved in phosphate buffer pH 11, was added subsequently. The measured absorptions at 340 nm in an MTP reader (Molecular Devices, Denmark) were transformed into the relative degree of hydrolysis (DH) in per cent.
A 20% (w/w) WPI suspension hydrolysed in 6 M HCl (Sigma-Aldrich, Denmark) at 100° C. for 24 h served as reference (100% DH).

H-Ala-Ala-Ala-pNA = assay: Exopeptidase Broad-Specificity Assay (EBSA) with H-Ala-Ala-Ala-pNA; pH and temperature profile
Method: 10 μL of the chromogenic peptide solution (10 mM H-Ala-Ala-Ala-pNA dissolved in dimethyl sulfoxide (DMSO); MW=387.82; Bachem, Switzerland) were added to 130 μl Na-acetate (20 mM, adjusted to pH 4.0 with acetic acid) in a microtiter plate and heated for 5 minutes at 40° C. 10 μL of appropriately diluted enzyme was added and the absorption was measured in a MTP reader (Versa max, Molecular Devices, Denmark) at 405 nm. One katal of proteolytic activity was defined as the amount of enzyme required to release 1 mole of p-nitroaniline per second.
The chromogenic peptide H-Ala-Ala-Ala-pNA (MW=387.82; Bachem, Switzerland) was used to determine the activity of proline tolerant tripeptidyl peptidase in the samples produced as described above. The assay was conducted as follows, 10 μL of the chromogenic peptide solution (10 mM dissolved in dimethyl sulfoxide; DMSO) were added to 130 μl Na-acetate (20 mM, adjusted to pH 4.0 with acetic acid) in a microtiter plate and heated for 5 minutes at 40° C. 10 μL of appropriately diluted enzyme was added and the absorption was measured in an MTP reader (Versa max, Molecular Devices, Denmark) at 405 nm. One katal of proteolytic activity was defined as the amount of enzyme required to release 1 mole of p-nitroaniline per second.
The proline tolerant tripeptidyl peptidase assay described with H-Ala-Ala-Ala-pNA substrate above with modification of using the buffers 20 mM Na-glycine (pH 2.0, 2.5, 3.0, 3.5 and 4.0) or 20 mM Na-acetate buffer (pH 4.0, 4.5 and 5.5) was used to determine the pH profile of proline tolerant tripeptidyl peptidase TRI083 (FIG. 2) and TRI045 (FIG. 24)..
The proline tolerant tripeptidyl peptidase assay described above was used at temperatures 25, 50, 55, 60, 65, 70, 75, 80 and 85° C.
For proline tolerant tripeptidyl peptidase the chromogenic peptide H-Ala-Ala-Ala-pNA was used. The assay was conducted as follows, 27.5 μL of appropriately diluted enzyme was added to 200 μl McIlvaine buffer (20 mM, pH 4.0). After incubation at 50° C. for 5 min, 12.5 μL of the chromogenic peptide solution (5 mg/mL dissolved in dimethyl sulfoxide (DMSO); Sigma-Aldrich, Denmark) were added to the reaction mixture. The reaction was terminated by adding 50 μL of 0.5 M trichloroacetic acid (TCA; Sigma-Aldrich, Denmark). After centrifugation (15,000×g, 5 min), 240 μL of the solution were transferred to a microtiter plate (MTP; Kisker-biotech, Germany) and the absorption was measured in an MTP reader (Molecular Devices, Denmark) at 405 nm. One katal of proteolytic activity was defined as the amount of enzyme required to release 1 mol of p-nitroaniline per second.

sodium caseinate = assay: 5% sodium caseinate hydrolysis with endopeptidase, TRI083 and PepN, serine equivalents; details: 17,500 nkat/mL TRI083

| Molecule | Ki [1] | Degree of hydrolysis of 20% (w/w) WPI ([2]; TRI083 2,188 nkat/mL stock solution) | Degree of hydrolysis of 20% (w/w) WPI ([2]; TRI083 4,375 nkat/mL stock solution) | Degree of hydrolysis of 20% (w/w) WPI ([2]; TRI083 8,375 nkat/mL stock solution) | activity at 70° C. and higher temperatures (H-Ala-Ala-Ala-pNA) | Optimum pH (H-Ala-Ala-Ala-pNA; H-Ala-Ala-Ala-pNA, 20 mM Na-glycine pH 2.0-4.0 or Na-acetate pH 4.0-5.5) | optimum temperature (H-Ala-Ala-Ala-pNA; tested at 25-85° C.) | increase of SE (sodium caseinate) |
| --- | --- | --- | --- | --- | --- | --- | --- | --- |
| C[C@H](N)C(=O)N[C@@H](C)C(=O)N[C@@H](C)C(=O)O [H-Ala-Ala-Ala-OH] | 0.34 mM |  |  |  |  |  |  |  |
| C[C@H](N)C(=O)N[C@@H](C)C(=O)O [H-Ala-Ala-OH] (H-Ala-Ala-OH) | 40 mM |  |  |  |  |  |  |  |
| B1 |  | 0.5% | −0.9% | 1.4% | no activity | 4.0 | 50 °C | 18 mM |
